Target: T1, recombinant human GM-CSF (human, UniProt P04141 18-144)
T1 construct: also called rhGM-CSF
Assay: SPR, BIAcore 2000, 100 RU rhGM-CSF on chip, antibody 1-10 nM, Langmuir 1:1 model

T1 sequence (P04141 18-144 limits assumed): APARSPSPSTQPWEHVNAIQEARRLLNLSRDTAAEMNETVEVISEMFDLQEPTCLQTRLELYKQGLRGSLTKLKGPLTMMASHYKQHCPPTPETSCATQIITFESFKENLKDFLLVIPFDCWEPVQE

kon: 510000 M⁻¹ s⁻¹
B1: chimeric 19/2 anti-human GM-CSF monoclonal antibody (antibody, V domains shown)
VH: EVQLQQSGPELVKPGASVKISCKASGYTFTDYNIHWVKQSHGKSLDWIGYIAPYSGGTGYNQEFKNRATLTVDKSSSTAYMELRSLTSDDSAVYYCARRDRFPYFDYWGQGTTLRVSS
VL: DIVMIQSQKFVSTSVGDRVNITCKASQNVGSNVAWLQQKPGQSPKTLIYSASYRSGRVPDRFTGSGSGTDFILTITTVQSEDLAEYFCQQFNRSPLTFGSGTKLELKR

From US20040053365A1 (LUDWIG INSTITUTE FOR CANCER RESEARCH, published 2004)
